Reference: patent US20260242478A1 (published 2026)

B1: Phage-3056 (peptide)
peptide: IEMMCRPSWMCDWL
notes: Peptide-180 library clone, tested as clonal phage supernatant (peptide fused to pIII of the bacteriophage)
B2: Phage-3057 (peptide)
peptide: TGPVCIPKWMCFGF
notes: as for B1
B3: Phage-3058 (peptide)
peptide: DWVRCVPEWMCLGF
notes: as for B1
B4: Phage-3059 (peptide)
peptide: EFAMCRPVWMCWGF
notes: as for B1

Each binder was assayed against T1, PSMA Fab (006 PSMA Fab) (Fab biotinylated for capture on neutravidin plates (site not stated)) (assay: phage ELISA: clonal phage supernatant on biotinylated PSMA Fab captured on neutravidin plate, blocking buffer alone, anti-M13-HRP detection).
T1 construct: also called Anti-PSMA Fab; anti-PSMA Fab

In order of rising “Phage binding ELISA signal, Anti-PSMA Fab” value:
1. LEHMCRPSWMCTGF [Phage-3085 (peptide-180 library clone)]  2.1
2. FWAQCVPPWMCSGF [Phage-3086 (peptide-180 library clone)]  2.1
3. VDLICRPAWMCSGF [Phage-3087 (peptide-180 library clone)]  2.1
4. TYMMCVPEWMCQGF [Phage-3078 (peptide-180 library clone)]  2.11
5. HLMACKPAWMCLGL [Phage-3079 (peptide-180 library clone)]  2.11
6. EWMKCVPLWMCEGI [Phage-3080 (peptide-180 library clone)]  2.11
7. TDHLCVPSWMCLGF [Phage-3081 (peptide-180 library clone)]  2.11
8. DGPLCVPQWMCLWL [Phage-3082 (peptide-180 library clone)]  2.11
9. GQNLCIPSWMCEGF [Phage-3083 (peptide-180 library clone)]  2.11
10. LDAMCRPLWMCSGF [Phage-3084 (peptide-180 library clone)]  2.11
11. TASWCKPGGACKGF [Phage-3074 (peptide-180 library clone)]  2.12
12. YEQLCKPLWMCQGF [Phage-3075 (peptide-180 library clone)]  2.12
13. DEWICRPAWMCQGF [Phage-3076 (peptide-180 library clone)]  2.12
14. VNHLCKPTWMCAGF [Phage-3077 (peptide-180 library clone)]  2.12

These binders were tested against T2, PSMA Fab (006 PSMA Fab) (assay: phage ELISA; biotinylated PSMA Fab on neutravidin plate, clonal phage supernatant, anti-M13 HRP detection; blocking buffer alone).
T2 construct: also called Anti-PSMA Fab; anti-PSMA Fab
Method: (§1) Clonal phage were harvested as crude supernatants and screened via standard ELISAs. […] Prior to the addition of clonal phage. wells were incubated with blocking buffer and PSMA antigen or blocking buffer alone. Without washing or aspirating, clonal phage supernatants were then added to the wells and incubated for a short time. Wells were then washed followed by detection of bound phage using a horse radish conjugated anti-M13 antibody.

In order of rising “Phage binding ELISA signal, Anti-PSMA Fab” value:
1. B2  2.15
2. B3  2.15
3. B4  2.15
4. B1  2.16

Each binder was assayed against T2, PSMA Fab (006 PSMA Fab) (assay: phage ELISA; biotinylated PSMA Fab on neutravidin plate pre-incubated with PSMA antigen as competitor, clonal phage supernatant, anti-M13 HRP detection).
Method: as §1

In order of rising “Phage binding ELISA signal, Anti-PSMA Fab in the presence of PSMA antigen” value:
1. B2  0.075
2. B1  0.0844
3. B3  0.106
4. B4  0.142

What follows are binders tested against T1, PSMA Fab (006 PSMA Fab) (assay: phage ELISA: clonal phage supernatant on biotinylated PSMA Fab captured on neutravidin plate, wells pre-incubated with PSMA antigen as competitor, anti-M13-HRP detection).
Method: as §1

In order of falling “Phage binding ELISA signal, Anti-PSMA Fab in presence of PSMA” value:
1. FWAQCVPPWMCSGF [Phage-3086 (peptide-180 library clone)]  0.199
2. HLMACKPAWMCLGL [Phage-3079 (peptide-180 library clone)]  0.135
3. TYMMCVPEWMCQGF [Phage-3078 (peptide-180 library clone)]  0.101
4. EWMKCVPLWMCEGI [Phage-3080 (peptide-180 library clone)]  0.0802
5. TASWCKPGGACKGF [Phage-3074 (peptide-180 library clone)]  0.0801
6. TDHLCVPSWMCLGF [Phage-3081 (peptide-180 library clone)]  0.0801
7. GQNLCIPSWMCEGF [Phage-3083 (peptide-180 library clone)]  0.08
8. LDAMCRPLWMCSGF [Phage-3084 (peptide-180 library clone)]  0.0799
9. LEHMCRPSWMCTGF [Phage-3085 (peptide-180 library clone)]  0.0798
10. VNHLCKPTWMCAGF [Phage-3077 (peptide-180 library clone)]  0.0765
11. VDLICRPAWMCSGF [Phage-3087 (peptide-180 library clone)]  0.0726
12. DGPLCVPQWMCLWL [Phage-3082 (peptide-180 library clone)]  0.0699
13. DEWICRPAWMCQGF [Phage-3076 (peptide-180 library clone)]  0.0632
14. YEQLCKPLWMCQGF [Phage-3075 (peptide-180 library clone)]  0.0628

Each binder was assayed against T3, 006 PSMA Fab (assay: clonal phage ELISA on captured PSMA Fab pre-incubated with PSMA antigen as competitor, anti-M13 HRP detection;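 note: crude clonal phage supernatants tested by ELISA, wells first treated with blocking buffer plus PSMA antigen, bound phage read out via HRP-linked anti-M13 antibody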).
T3 construct: In the panning ELISA the PSMA Fab was biotinylated and captured on neutravidin coated plates; also called Anti-PSMA Fab; anti-PSMA Fab
Method: as §1

In order of falling “Phage binding ELISA signal, Anti-PSMA Fab in the presence of PSMA antigen” value:
1. VVPRCEPMWMCQGF [Phage-3088]  0.0982
2. TGAICVPEWMCMGF [Phage-3092]  0.0934
3. TDQLCKPLWMCTGF [Phage-3089]  0.0815
4. VSIMCTPLWMCEGF [Phage-3090]  0.0782
5. TELACKPLWMCNGF [Phage-3091]  0.0691

The binders below were run against T4, 006 PSMA Fab (assay: clonal phage ELISA on biotinylated PSMA Fab captured on neutravidin, wells pre-incubated with PSMA antigen as competitor, anti-M13 HRP detection).
T4 construct: In the phage ELISA the Fab was biotinylated and captured on neutravidin coated plates; also called Anti-PSMA Fab
Method: as §1

In order of rising “Phage binding ELISA signal, Anti-PSMA Fab with PSMA antigen” value:
1. ITKACIPEWMCHAF [Phage-3061]  0.0651
2. VQVLCVPSWMCHGF [Phage-3062]  0.0688
3. LLAECVAAWMCSGF [Phage-3067]  0.0712
4. VVPMCSPSWMCQGF [Phage-3064]  0.0725
5. EEKMCVPLWMCSGF [Phage-3060]  0.0787
6. VERSCVPSWMCYGF [Phage-3066]  0.0806
7. LSHMCRPAWMCEGF [Phage-3068]  0.0938
8. LEKACVPQWMCYGL [Phage-3070]  0.0938
9. VEIQCRPSWMCMGF [Phage-3063]  0.0951
10. GMVRCVPQWMCVGF [Phage-3065]  0.111
11. IMMRCEPVWMCEGF [Phage-3072]  0.118
12. SPYFCIPAWMCHGF [Phage-3071]  0.121
13. WLMRCEPQWMCAGF [Phage-3073]  0.131
14. ISPVCIPSWMCLGL [Phage-3069]  0.174

The binders below were run against T4, 006 PSMA Fab (assay: clonal phage ELISA on biotinylated PSMA Fab captured on neutravidin, anti-M13 HRP detection, no competitor).
Method: as §1

In order of falling “Phage binding ELISA signal, Anti-PSMA Fab” value:
1. EEKMCVPLWMCSGF [Phage-3060]  2.15
2. ITKACIPEWMCHAF [Phage-3061]  2.15
3. VQVLCVPSWMCHGF [Phage-3062]  2.15
4. VEIQCRPSWMCMGF [Phage-3063]  2.14
5. VVPMCSPSWMCQGF [Phage-3064]  2.14
6. GMVRCVPQWMCVGF [Phage-3065]  2.14
7. VERSCVPSWMCYGF [Phage-3066]  2.14
8. LLAECVAAWMCSGF [Phage-3067]  2.13
9. LSHMCRPAWMCEGF [Phage-3068]  2.13
10. ISPVCIPSWMCLGL [Phage-3069]  2.13
11. LEKACVPQWMCYGL [Phage-3070]  2.13
12. SPYFCIPAWMCHGF [Phage-3071]  2.13
13. IMMRCEPVWMCEGF [Phage-3072]  2.13
14. WLMRCEPQWMCAGF [Phage-3073]  2.12

What follows are binders tested against T3, 006 PSMA Fab (assay: clonal phage ELISA on biotinylated PSMA Fab captured on neutravidin plates, anti-M13 HRP detection;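 note: crude clonal phage supernatants tested, before phage were added, wells were pretreated with PSMA antigen in blocking buffer or with blocking buffer only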).
Method: as §1

In order of falling “Phage binding ELISA signal, Anti-PSMA Fab” value:
1. VVPRCEPMWMCQGF [Phage-3088]  2.1
2. TDQLCKPLWMCTGF [Phage-3089]  2.1
3. VSIMCTPLWMCEGF [Phage-3090]  2.1
4. TELACKPLWMCNGF [Phage-3091]  2.1
5. TGAICVPEWMCMGF [Phage-3092]  2.1
